How the values were obtained:
[1] = molecular target: T1, prostate specific membrane antigen (PSMA) on LNCaP cells (human, UniProt Q04609 1-750); test: cell-based or functional assay
[2] = molecular target: T1, prostate specific membrane antigen …; test: cell-based or functional assay; remark: listed apart in the source

T1 sequence (Q04609 whole entry): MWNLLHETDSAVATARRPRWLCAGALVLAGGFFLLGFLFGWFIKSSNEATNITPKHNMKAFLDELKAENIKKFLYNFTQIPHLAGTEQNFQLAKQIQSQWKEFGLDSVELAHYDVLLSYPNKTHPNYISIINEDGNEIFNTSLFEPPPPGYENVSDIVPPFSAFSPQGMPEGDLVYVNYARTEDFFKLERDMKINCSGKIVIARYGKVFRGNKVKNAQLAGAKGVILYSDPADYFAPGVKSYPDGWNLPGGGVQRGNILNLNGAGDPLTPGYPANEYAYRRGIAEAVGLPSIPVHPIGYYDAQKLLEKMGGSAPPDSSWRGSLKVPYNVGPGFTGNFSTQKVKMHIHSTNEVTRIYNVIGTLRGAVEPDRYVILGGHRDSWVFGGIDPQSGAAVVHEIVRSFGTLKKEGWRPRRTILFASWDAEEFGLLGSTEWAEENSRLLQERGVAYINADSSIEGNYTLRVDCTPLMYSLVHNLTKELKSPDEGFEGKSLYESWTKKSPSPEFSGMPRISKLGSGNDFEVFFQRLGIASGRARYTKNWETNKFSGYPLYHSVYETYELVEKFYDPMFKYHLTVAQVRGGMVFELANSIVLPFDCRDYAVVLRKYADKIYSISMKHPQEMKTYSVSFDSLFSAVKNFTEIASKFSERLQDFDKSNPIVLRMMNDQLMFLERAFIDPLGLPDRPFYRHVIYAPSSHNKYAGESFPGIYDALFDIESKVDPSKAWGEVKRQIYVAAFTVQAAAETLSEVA

B1: anti-PSMA human monoclonal antibody 7F12 expressed in eggs of chimeric chickens (lacks fucose residues) (antibody, IgG1, V domains shown)
VH: AVQLVQSGAEVKKPGESLKISCKGSGYSFTSFWIGWARQMPGKGLEWMGIIYPGDSDTRYSPSFQGQVTISADKSISTAYLQWSSLKASDTAMYYCATANSSFWNFDLWGRGTLVTVSS
VL: EIVLTQSPATLSLSPGERATLSCRASQSVSSYLAWYQQKPGQAPRLLIYDASNRATGIPARFSGSGSGTDFTLTISSLEPEDFAVYYCQQRSNWLMYTFGQGTKLEIK
modifications: N-linked Fc glycans without fucosyl residues (high-mannose, complex and hybrid type)
[1]
  ADCC % lysis at 1 µg/ml antibody, no anti-CD16 antibody: ~38%
  ADCC EC50, 51Cr release, LNCaP-C42b targets, IL-2 stimulated effector cells: 0.018 µg/mL
  ADCC EC50 fold difference against CHO-expressed 7F12: ~6 fold lower
  EC50 for antibody internalization (Hum-Zap saporin conjugate, LNCaP cell viability): 0.49 nM

B2: anti-PSMA human monoclonal antibody 7F12 expressed in CHO cells (fucosylated) (antibody, human IgG1, V domains shown)
VH: AVQLVQSGAEVKKPGESLKISCKGSGYSFTSFWIGWARQMPGKGLEWMGIIYPGDSDTRYSPSFQGQVTISADKSISTAYLQWSSLKASDTAMYYCATANSSFWNFDLWGRGTLVTVSS
VL: EIVLTQSPATLSLSPGERATLSCRASQSVSSYLAWYQQKPGQAPRLLIYDASNRATGIPARFSGSGSGTDFTLTISSLEPEDFAVYYCQQRSNWLMYTFGQGTKLEIK
modifications: N-linked Fc glycans containing fucosyl residues
[1]
  ADCC % lysis at 1 µg/ml antibody, no anti-CD16 antibody: ~15%
  ADCC EC50, 51Cr release, LNCaP-C42b targets, IL-2 stimulated effector cells: 0.11 µg/mL
  EC50 for antibody internalization (Hum-Zap saporin conjugate, LNCaP cell viability): 0.49 nM

B3: anti-PSMA fully human monoclonal antibody 2A10 expressed in CHO DG44 cells (fucosylated) (antibody, V domains shown)
VH: EVQLVQSGAEVKKPGESLKISCKGSGYSFTSNWIGWVRQMPGKGLEWMGIIYPGDSDTRYSPSFQGQVTISADKSISTAYLQWSSLKASDTAMYYCARQTGFLWSSDLWGRGTLVTVSS
VL: AIQLTQSPSSLSASVGDRVTITCRASQDISSALAWYQQKPGKAPKLLIYDASSLESGVPSRFSGYGSGTDFTLTINSLQPEDFATYYCQQFNSYPLTFGGGTKVEIK
modifications: N-linked glycans containing fucose
[1]
  ADCC % lysis at 1 µg/ml antibody, no anti-CD16 antibody: ~12%
[2]
  ADCC EC50 (µg/ml) Fucosylated, Expt. #1 (IL-2 stimulated effector cells, LNCaP-C42b targets): 0.08 µg/mL
  ADCC EC50 (µg/ml) Fucosylated, Expt. #2 (IL-2 stimulated effector cells, LNCaP-C42b targets): 0.026 µg/mL
  ADCC EC50 (µg/ml) Fucosylated, Expt. #3 (fresh human peripheral blood effector cells, LNCaP-C42b targets): 0.036 µg/mL

B4: anti-PSMA fully human monoclonal antibody 2A10 expressed in FUT8-/- Ms704 cells (defucosylated) (antibody, IgG1, V domains shown)
VH: EVQLVQSGAEVKKPGESLKISCKGSGYSFTSNWIGWVRQMPGKGLEWMGIIYPGDSDTRYSPSFQGQVTISADKSISTAYLQWSSLKASDTAMYYCARQTGFLWSSDLWGRGTLVTVSS
VL: AIQLTQSPSSLSASVGDRVTITCRASQDISSALAWYQQKPGKAPKLLIYDASSLESGVPSRFSGYGSGTDFTLTINSLQPEDFATYYCQQFNSYPLTFGGGTKVEIK
modifications: N-linked glycans without fucose residues
[1]
  ADCC % lysis at 1 µg/ml antibody, no anti-CD16 antibody: ~37%
[2]
  ADCC EC50 (µg/ml) Defucosylated, Expt. #1 (IL-2 stimulated effector cells, LNCaP-C42b targets): 0.007 µg/mL
  ADCC EC50 (µg/ml) Defucosylated, Expt. #2 (IL-2 stimulated effector cells, LNCaP-C42b targets): 0.009 µg/mL
  ADCC EC50 (µg/ml) Defucosylated, Expt. #3 (fresh human peripheral blood effector cells, LNCaP-C42b targets): 0.002 µg/mL
  ADCC EC50 Ratio (fucosylated to defucosylated 2A10), Expt. #1: 11.4 ratio
  ADCC EC50 Ratio (fucosylated to defucosylated 2A10), Expt. #2: 2.9 ratio
  ADCC EC50 Ratio (fucosylated to defucosylated 2A10), Expt. #3: 18 ratio

Reference: patent US20090060908A1 (Bristol-Myers Squibb, published 2009)
